# Test results published in patent US20240158497A1 (published 2024).
# T1: Macaca Fascicularis GP130 extracellular domain expressed with a C-terminal myc-myc-hexahistidine tag (Macaca fascicularis, UniProt P40189 23-619 (human entry))
# T1 construct: also called mfGP130-MMH; mfGP130-mmH
# T1 chain: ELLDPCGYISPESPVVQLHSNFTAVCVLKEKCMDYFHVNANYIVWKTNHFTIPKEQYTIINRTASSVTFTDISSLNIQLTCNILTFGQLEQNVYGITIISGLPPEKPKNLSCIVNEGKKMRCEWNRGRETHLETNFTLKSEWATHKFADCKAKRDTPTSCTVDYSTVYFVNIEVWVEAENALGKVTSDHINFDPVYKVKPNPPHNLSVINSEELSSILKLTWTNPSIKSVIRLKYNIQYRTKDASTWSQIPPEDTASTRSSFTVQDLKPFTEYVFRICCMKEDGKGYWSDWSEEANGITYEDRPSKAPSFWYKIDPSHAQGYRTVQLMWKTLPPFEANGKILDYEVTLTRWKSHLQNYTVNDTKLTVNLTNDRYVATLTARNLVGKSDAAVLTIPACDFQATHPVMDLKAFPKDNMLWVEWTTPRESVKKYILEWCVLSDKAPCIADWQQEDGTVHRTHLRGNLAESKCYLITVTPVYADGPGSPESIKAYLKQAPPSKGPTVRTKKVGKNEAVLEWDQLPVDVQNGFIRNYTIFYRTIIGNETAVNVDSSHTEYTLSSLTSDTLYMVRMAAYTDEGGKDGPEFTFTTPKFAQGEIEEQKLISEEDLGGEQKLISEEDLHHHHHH
# Tests used:
# [1] = target: T1, Macaca Fascicularis GP130 extracellular …; assay: SPR, bsAb captured by anti-hFc, 37C
# Description: (§1) Equilibrium dissociation constants (KD values) for LEPR and GP130 binding to purified anti-LEPR/GP130 bispecific antibodies were determined using a real-time surface plasmon resonance biosensor using a Biacore 4000 instrument. All binding studies were performed in 10 mM HEPES, 150 mM NaCl, 3 mM EDTA, and 0.05% v/v Surfactant Tween-20, pH 7.4 (HBS-ET) running buffer at 25° C. and 37° C. The Biacore sensor surface was first derivatized by amine coupling with a monoclonal mouse anti-human Fc antibody (GE, #BR-1008-39) to capture anti-LEPR/GP130 bispecific antibodies. […] Different concentrations of LEPR or GP130 reagents were first prepared in HBS-ET running buffer (100 nM-3.7 nM; 3-fold serial dilution) and were injected over anti-human Fc captured anti-LEPR/GP130 bispecific antibody surface for 4 minutes at a flow rate of 30 μL/minute, while the dissociation of bispecific antibody bound LEPR or GP130 reagent was monitored for 10 minutes in HBS-ET running buffer. Kinetic association (kₐ) and dissociation (kd) rate constants were determined by fitting the real-time binding sensorgrams to a 1:1 binding model with mass transport limitation using Scrubber 2.0c curve-fitting software. Binding dissociation equilibrium constants (KD) and dissociative half-lives (t ½) were calculated from the kinetic rate constants as: […]
# [2] = target: T2, human GP130 extracellular domain expressed with a C-terminal myc-myc-hexahistidine tag (human, UniProt P40189 23-619); assay: SPR, bsAb captured by anti-hFc, 37C
# T2 construct: also called hGP130-MMH; hGP130-mmH
# Description: as §1
# [3] = target: T1, Macaca Fascicularis GP130 extracellular …; assay: SPR, bsAb captured by anti-hFc, 25C
# Description: as §1
# [4] = target: T2, human GP130 extracellular domain …; assay: SPR, bsAb captured by anti-hFc, 25C
# Description: as §1
Binder,100 nM mfGP130-MMH Bound (RU) [1] [RU],Kd [1] [nM],koff [1] [s⁻¹],kon [1] [M⁻¹ s⁻¹],t½ [1] [min],100 nM hGP130-MMH Bound (RU) [2] [RU],Kd [2] [nM],koff [2] [s⁻¹],kon [2] [M⁻¹ s⁻¹],t½ [2] [min],100 nM mfGP130-MMH Bound (RU) [3] [RU],Kd [3] [nM],koff [3] [s⁻¹],kon [3] [M⁻¹ s⁻¹],t½ [3] [min],100 nM hGP130-MMH Bound (RU) [4] [RU],Kd [4] [nM],koff [4] [s⁻¹],kon [4] [M⁻¹ s⁻¹],t½ [4] [min],other results
"bsAb19145D (bispecific antibody, V domains shown, LEPR x GP130 bispecific with common light chain) VH 1: QVQLVESGGGVVQPGRSLRLSCTASGFTFSSYAMYWVRQAPGKGLEWVSVIYYDGSYKYYADSVKGRFTISRDNSKNTLYLQMDSLRAEDTAVYYCASYNWNYWYFDFWGRGTLVTVSS VH 2: EVQLVESGGGLVQPGRSLRLSCAASGFTLDDFAMHWVRQAPGKGLEWVSGISWNSGNIGYADSVKGRFTISRDNARNSLYLQMNSLRAEDTALYYCTSGYYLYYAMDVWGQGTTVTVSS VL: not shown",29,37.6,0.00221,58800,5,30,32,0.00222,69200,5,18,17.4,0.000576,33100,20,19,17.5,0.000598,34100,19,–
"bsAb19152D (bispecific antibody, V domains shown, LEPR x GP130 bispecific with common light chain) VH 1: QVQLVESGGGVVQPGRSLRLSCTASGFTFSSYAMYWVRQAPGKGLEWVSVIYYDGSYKYYADSVKGRFTISRDNSKNTLYLQMDSLRAEDTAVYYCASYNWNYWYFDFWGRGTLVTVSS VH 2: EVQLVQSGAEVKKPGESLKISCKGSGYSFTSYWIDWVRQMPGKGLEWMGIIYPDDSDTRYSPSFQGQVTMSVDKSISTAYLQWSSLKASDTAIYYCARHERGIVEAGTDYYYYYGMDVWGQGTTVTVSS VL: not shown",51,51.6,0.0177,342000,0.7,28,89.1,0.0363,407000,0.3,52,18.8,0.00553,295000,2.1,35,57.4,0.0113,196000,1,–
"bsAb19143D (bispecific antibody, V domains shown, LEPR x GP130 bispecific with common light chain) VH 1: QVQLVESGGGVVQPGRSLRLSCTASGFTFSSYAMYWVRQAPGKGLEWVSVIYYDGSYKYYADSVKGRFTISRDNSKNTLYLQMDSLRAEDTAVYYCASYNWNYWYFDFWGRGTLVTVSS VH 2: QLQLQESGPGLVKPSETLSLICTVSGGSISSNNYYWGWIRQPPGKGLEWIGNLYGSGSTYYNPSLKSRVTISVDTSKNQFSLKLSFVTAADTAVYHCARWDTNGGAFDIWGQGTMVTVSS VL: not shown",14,57.9,0.00396,68300,2.9,27,44.6,0.00212,47600,5,10,43,0.0013,30100,9,16,20.2,0.000647,32000,18,–

# Now those with a lower Kd [2], led by results:
100 nM mfGP130-MMH Bound (RU) [1] [RU],Kd [1] [nM],koff [1] [s⁻¹],kon [1] [M⁻¹ s⁻¹],t½ [1] [min],100 nM hGP130-MMH Bound (RU) [2] [RU],Kd [2] [nM],koff [2] [s⁻¹],kon [2] [M⁻¹ s⁻¹],t½ [2] [min],100 nM mfGP130-MMH Bound (RU) [3] [RU],Kd [3] [nM],koff [3] [s⁻¹],kon [3] [M⁻¹ s⁻¹],t½ [3] [min],100 nM hGP130-MMH Bound (RU) [4] [RU],Kd [4] [nM],koff [4] [s⁻¹],kon [4] [M⁻¹ s⁻¹],t½ [4] [min],Binder,other results
33,21.6,0.00715,332000,1.6,37,17.5,0.00622,356000,1.9,28,31.2,0.00374,120000,3.1,31,19,0.00329,173000,4,"bsAb19142D (bispecific antibody, V domains shown, LEPR x GP130 bispecific with common light chain) VH 1: QVQLVESGGGVVQPGRSLRLSCTASGFTFSSYAMYWVRQAPGKGLEWVSVIYYDGSYKYYADSVKGRFTISRDNSKNTLYLQMDSLRAEDTAVYYCASYNWNYWYFDFWGRGTLVTVSS VH 2: EVQLVESGGGLVQPGGSLRLSCAASGLTFSSYEMNWVRQAPGKGLEWVSHISSAGSTKYYADSVKGRFTISRDNAKNSLFLQMNSLRAEDTAIYYCAGYNYAYYYFGVDVWGQGTTVTVSS VL: not shown",–
6,–,–,–,–,16,16.6,0.000373,22400,31,3,–,–,–,–,9,10.5,0.000221,21100,52,"bsAb19151D (bispecific antibody, V domains shown, LEPR x GP130 bispecific with common light chain) VH 1: QVQLVESGGGVVQPGRSLRLSCTASGFTFSSYAMYWVRQAPGKGLEWVSVIYYDGSYKYYADSVKGRFTISRDNSKNTLYLQMDSLRAEDTAVYYCASYNWNYWYFDFWGRGTLVTVSS VH 2: EVQLVESGGGLVQPGGSLRLSCAASGFTFSSYAMNWVRQAPGKGLEWVSAISGSGDSTYYTDSVKGRFTISRDNSKNTLYLQMNTLRAEDTAVYYCAKEEIVMLVGATPGWFDPWGQGTLVTVSS VL: not shown",binding result [3]: no binding (tested: 100 nM)
46,19.3,0.00773,401000,1.5,52,15.4,0.00665,433000,1.7,44,16.8,0.00519,308000,2.2,47,14,0.0048,342000,2.4,"bsAb19150D (bispecific antibody, V domains shown, LEPR x GP130 bispecific with common light chain) VH 1: QVQLVESGGGVVQPGRSLRLSCTASGFTFSSYAMYWVRQAPGKGLEWVSVIYYDGSYKYYADSVKGRFTISRDNSKNTLYLQMDSLRAEDTAVYYCASYNWNYWYFDFWGRGTLVTVSS VH 2: EVQLVESGGGLVQSGGSLRLSCAASGFTFSRYEMNWVRQAPGKGLEWVAYISNTGTTRDYSDSVKGRFTISRDNAKNSLYLQMSSLRVEDTAVYYCVREKFSGTSDWFDPWGQGTLVTVSS VL: not shown",–
41,10.9,0.00183,168000,6,42,10.6,0.00188,177000,6,27,13.4,0.000762,56700,15,27,12.1,0.000777,64300,15,"bsAb19144D (bispecific antibody, V domains shown, LEPR x GP130 bispecific with common light chain) VH 1: QVQLVESGGGVVQPGRSLRLSCTASGFTFSSYAMYWVRQAPGKGLEWVSVIYYDGSYKYYADSVKGRFTISRDNSKNTLYLQMDSLRAEDTAVYYCASYNWNYWYFDFWGRGTLVTVSS VH 2: QVQLVQSGAEVKKPGASVKVSCKASGYTFTSLGISWVRQAPGQGLEWMGWISAYSGNRDYAQKFQGRVTMTTDTSTSTAYMELRSLRSDDTAVYYCARSLRFDYWGQGTLVTVSS VL: not shown",–
53,0.959,0.000626,653000,18,53,0.901,0.000641,712000,18,31,0.513,0.000258,502000,45,31,0.448,0.000273,609000,42,"bsAb19146D (bispecific antibody, V domains shown, LEPR x GP130 bispecific with common light chain) VH 1: QVQLVESGGGVVQPGRSLRLSCTASGFTFSSYAMYWVRQAPGKGLEWVSVIYYDGSYKYYADSVKGRFTISRDNSKNTLYLQMDSLRAEDTAVYYCASYNWNYWYFDFWGRGTLVTVSS VH 2: QVQLVQSGPEVKKPGSSVKVSCKASGGTIDRNEITWVRQAPGQGLEWMGVIIPILGEAHYERKFQGRLTITMDESTSTAYMELSNLRSEDTAVYYCARERAARGYLDYWGQGTLVTVSS VL: not shown",–
